Experimental findings from US20260061032A1 (GI INNOVATION, published 2026) are described below.

Experiment [1] deals with T1, hIL-2Rα (human, UniProt P01589 22-213).
T1 construct: also called hIL-2Ra; IL-2 receptor alpha chain
T1 sequence (looked up): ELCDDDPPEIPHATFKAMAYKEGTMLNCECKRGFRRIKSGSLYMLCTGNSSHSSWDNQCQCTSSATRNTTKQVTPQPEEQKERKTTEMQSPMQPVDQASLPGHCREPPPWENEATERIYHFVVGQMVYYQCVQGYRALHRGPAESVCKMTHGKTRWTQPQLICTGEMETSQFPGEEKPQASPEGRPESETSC
Kind of experiment: SPR, Biacore T200; hIL-2Rα on CM5 chip through His capture kit, binder as analyte. The procedure:
To quantitatively analyze the binding affinities to CD73 and IL-2 receptors of […] and GI-108B1, in which the anti-CD73 antibody that specifically binds to CD73 was linked to the IL-2 variant, and Aldesleukin (trade name: PROLEUKIN®, Novartis), the binding affinities were measured using SPR (surface plasmon resonance). Using a BIACORE™ T200 instrument (Cytiva), the binding affinities of GI-108A1 (AHF10240), GI-108A1 (AHP04167) and GI-108B1 to hCD73, cyCD73, mCD73, hIL-2Rα, hIL-2Rβ, and hIL-2Rβγ were analyzed. Oleclumab (Astrazeneca), produced on order from Ybiologics, Inc., was used as a control.
To analyze the binding affinity to hIL-2Ra, hIL-2Ra was […] immobilized on Sensor Chip CM5 using a His capture kit (Cytiva, USA). Each of GI-108A1 (AHF10240), GI-108A1 (AHP04167), GI-108B1 and PROLEUKIN®, diluted in HBS-EP+ buffer, was then applied for 1 minute, followed by analysis of association and dissociation. In addition, the binding affinities to hIL-2RB and hIL-2Rβγ were measured by a three-step analysis method including treating Sensor Chip SA (Cytiva, USA) with biotinylated CD73, and then binding each of GI-108A1 (AHF10240), GI-108A1 (AHP04167), GI-108B1 and PROLEUKIN® to CD73, followed by treatment with each of hIL-2RB and hIL-2Rβγ diluted in HBS-P+ buffer (Cytiva, USA). For hIL-2RB, association was performed for 1 minute and dissociation for 1 minute, and for hIL-2Rβγ, association was performed for 5 minutes and dissociation for 2 hours at each concentration, in a single cycle kinetics analysis. Each sensorgram was normalized and subtracted compared to a blank cell to calculate affinity.

In experiment [2] the target is T2, hCD73 (human, UniProt P21589 27-549, limits assumed).
T2 sequence: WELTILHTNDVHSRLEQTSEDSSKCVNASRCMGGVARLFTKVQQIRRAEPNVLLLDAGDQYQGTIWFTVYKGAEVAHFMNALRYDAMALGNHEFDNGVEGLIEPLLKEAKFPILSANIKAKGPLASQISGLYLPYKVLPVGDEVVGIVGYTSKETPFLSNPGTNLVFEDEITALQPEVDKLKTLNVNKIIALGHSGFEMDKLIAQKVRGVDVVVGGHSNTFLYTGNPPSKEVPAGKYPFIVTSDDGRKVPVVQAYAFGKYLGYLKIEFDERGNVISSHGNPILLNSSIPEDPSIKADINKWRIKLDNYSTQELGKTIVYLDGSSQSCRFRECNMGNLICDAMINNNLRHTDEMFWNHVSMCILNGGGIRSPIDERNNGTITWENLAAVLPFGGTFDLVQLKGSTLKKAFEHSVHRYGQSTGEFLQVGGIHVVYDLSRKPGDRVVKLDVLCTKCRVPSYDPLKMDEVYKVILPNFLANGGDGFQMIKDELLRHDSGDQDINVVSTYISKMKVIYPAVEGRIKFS
Kind of experiment: cell-based or functional assay.

Experiment [3] addresses T3, IL-2Rβγ on HEK-BLUE IL-2 reporter cells (UniProt P14784 27-551; P31785 23-369).
T3 sequence (looked up) 1: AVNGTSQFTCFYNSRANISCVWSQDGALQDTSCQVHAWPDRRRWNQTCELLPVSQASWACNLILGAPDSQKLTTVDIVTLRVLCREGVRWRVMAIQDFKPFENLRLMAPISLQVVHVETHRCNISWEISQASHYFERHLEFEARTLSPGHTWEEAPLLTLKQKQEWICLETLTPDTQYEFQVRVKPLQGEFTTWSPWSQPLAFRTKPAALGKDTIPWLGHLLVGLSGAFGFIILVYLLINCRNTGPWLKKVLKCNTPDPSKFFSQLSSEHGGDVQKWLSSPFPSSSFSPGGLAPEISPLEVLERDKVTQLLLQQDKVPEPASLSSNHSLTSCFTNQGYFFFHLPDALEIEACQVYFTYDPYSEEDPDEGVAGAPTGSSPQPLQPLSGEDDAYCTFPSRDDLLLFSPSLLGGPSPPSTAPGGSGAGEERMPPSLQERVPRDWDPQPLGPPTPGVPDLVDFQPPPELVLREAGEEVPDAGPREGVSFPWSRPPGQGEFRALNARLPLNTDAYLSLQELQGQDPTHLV
T3 sequence (looked up) 2: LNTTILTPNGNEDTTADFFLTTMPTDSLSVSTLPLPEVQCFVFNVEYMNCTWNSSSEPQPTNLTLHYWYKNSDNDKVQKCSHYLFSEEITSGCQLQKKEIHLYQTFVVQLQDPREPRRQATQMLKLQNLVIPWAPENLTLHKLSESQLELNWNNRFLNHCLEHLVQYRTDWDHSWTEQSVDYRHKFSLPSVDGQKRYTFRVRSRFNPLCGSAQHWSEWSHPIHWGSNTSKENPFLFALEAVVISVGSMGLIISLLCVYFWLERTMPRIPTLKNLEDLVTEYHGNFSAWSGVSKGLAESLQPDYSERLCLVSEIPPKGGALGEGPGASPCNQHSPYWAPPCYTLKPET
The experiment is described as follows: cell-based or functional assay.

The target in experiment [4] is T4, membrane-bound human CD73 (human, UniProt P21589 27-549).
T4 sequence: T2 sequence
Kind of experiment: cell-based or functional assay.

For experiment [5], the target named is T5, hIL-2Rαβγ on CTLL-2 cells (human, UniProt P01589 22-272; P14784 27-551; P31785 23-369).
T5 sequence (looked up) 1: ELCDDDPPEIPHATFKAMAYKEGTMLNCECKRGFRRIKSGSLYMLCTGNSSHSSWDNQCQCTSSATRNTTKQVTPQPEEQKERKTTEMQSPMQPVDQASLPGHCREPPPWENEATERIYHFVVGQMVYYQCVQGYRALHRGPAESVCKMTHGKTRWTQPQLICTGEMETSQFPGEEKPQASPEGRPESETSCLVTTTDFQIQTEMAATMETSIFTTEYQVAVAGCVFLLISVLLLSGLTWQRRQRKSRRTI
T5 sequence (looked up) 2: T3 sequence (looked up) 1
T5 sequence (looked up) 3: T3 sequence (looked up) 2
The experiment is described as follows: cell-based or functional assay.

B1: GI-108A1 (AHF10240) (Anti-CD73 sdAb-hIgG4 Fc-hIL2v3 fusion protein dimer) (Fc fusion)
chain: EVQLVESGGGVVQTGGSLRLSCAASGRTFTHLAMGWFRQAPGKEREFVAAISNSGAGTQFADSVKGRFTISRDNAKNTVYLQMNSLKPEDTAVYYCAADWGTRDSPSKLNAVYDYWGRGTQVTVSSGGGGSAESKYGPPCPPCPAPEAAGGPSVFLFPPKPKDQLMISRTPEVTCVVVDVSQEDPEVQFNWYVDGVEVHNAKTKPREEQFNSTYRVVSVLTVLHQDWLNGKEYKCKVSNKGLPSSIEKTISKAKGQPREPQVYTLPPSQEEMTKNQVSLTCLVKGFYPSDIAVEWESNGQPENNYKTTPPVLDSDGSFFLYSRLTVDKSRWQEGNVFSCSVLHEALHNHYTQKSLSLSLGGGGGSGGGGSGGGGSAPTSSSTKKTQLQLEHLLLDLQMILNGINNYKNPKLTAMLTAKFYMPKKATELKHLQCLERELKPLEEVLNLAQSKNFHLRPRDLISNINVIVLELKGSETTFMCEYADETATIVEFLNRWITFCQSIISTLT
notes: Homodimer through hinge cysteines
For B1, in experiment [1], the binding result is “no binding”. Besides, the “IC50, inhibition of soluble CD73 enzyme activity (AMP-Glo assay, recombinant human CD73)” value in experiment [2] stood at 0.06 nM. In addition, in experiment [3], the “EC50, SEAP reporter (JAK-STAT pathway activation) in HEK-BLUE IL-2 reporter cells” value (from here on “EC50, SEAP reporter”) stood at 0.00263 nM. Also, in experiment [4], the “IC50, inhibition of membrane-bound CD73 enzyme activity on MDA-MB-231 cells (adenosine assay)” value was determined as 2.75 nM. Also, in experiment [5], the “EC50, CTLL-2 cell proliferation (WST-1 absorbance)” value (“EC50, CTLL-2 cell proliferation” below) is 2.02 nM and the “EC50 of CTLL-2 cell proliferation, relative to PROLEUKIN” value (“EC50 … relative to PROLEUKIN” for short) is 20 fold.

B2: GI-108B1 (Anti-CD73 Ab-hIgG4 Fc-hIL2v3 fusion protein dimer) (antibody)
heavy: QVQLVQSGAEVKKPGSSVKVSCKFSGGSFTSYSFSWVRQAPGQGLEWMGRIIPVLTTTDYAQKFRDRVTITADESTSTAYMELSGLRSEDTAVYYCASGLKKNWYFDLWGRGALITVSSASTKGPSVFPLAPCSRSTSESTAALGCLVKDYFPEPVTVSWNSGALTSGVHTFPAVLQSSGLYSLSSVVTVPSSSLGTKTYTCNVDHKPSNTKVDKRVESKYGPPCPPCPAPEAAGGPSVFLFPPKPKDQLMISRTPEVTCVVVDVSQEDPEVQFNWYVDGVEVHNAKTKPREEQFNSTYRVVSVLTVLHQDWLNGKEYKCKVSNKGLPSSIEKTISKAKGQPREPQVYTLPPSQEEMTKNQVSLTCLVKGFYPSDIAVEWESNGQPENNYKTTPPVLDSDGSFFLYSRLTVDKSRWQEGNVFSCSVLHEALHNHYTQKSLSLSLGGGGGSGGGGSAPTSSSTKKTQLQLEHLLLDLQMILNGINNYKNPKLTAMLTAKFYMPKKATELKHLQCLERELKPLEEVLNLAQSKNFHLRPRDLISNINVIVLELKGSETTFMCEYADETATIVEFLNRWITFCQSIISTLT
light: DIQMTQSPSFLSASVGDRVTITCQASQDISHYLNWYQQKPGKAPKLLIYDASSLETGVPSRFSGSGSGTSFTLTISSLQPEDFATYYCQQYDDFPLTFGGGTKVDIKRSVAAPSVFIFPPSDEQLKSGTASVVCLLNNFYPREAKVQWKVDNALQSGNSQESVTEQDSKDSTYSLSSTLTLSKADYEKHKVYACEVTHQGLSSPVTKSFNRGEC
notes: IgG4 anti-CD73 antibody with the IL-2 variant fused to the C-terminus of each heavy chain; expressed in CHO cells, purified as a dimer
As to B2, the binding result in experiment [1] is “no binding”. Moreover, the “IC50, inhibition of soluble CD73 enzyme activity (AMP-Glo assay, recombinant human CD73)” value in experiment [2] was 0.126 nM. For the same molecule, the “EC50, SEAP reporter” value in experiment [3] came out at 0.00128 nM. In addition, the “IC50, inhibition of membrane-bound CD73 enzyme activity on MDA-MB-231 cells (adenosine assay)” value in experiment [4] was determined as 3.37 nM. In experiment [5], the “EC50, CTLL-2 cell proliferation” value amounted to 1.7 nM and the “EC50 … relative to PROLEUKIN” value came out at 20 fold.

B3: GI-108A1 (AHP04167) (Anti-CD73 sdAb-hIgG4 Fc-hIL2v3 fusion protein dimer) (Fc fusion)
chain: EVQLVESGGGLVQAGGSLRLSCVVSGRTFSNYHMGWFRQAPGKEREFVAVIGRSGGPTYYADSVKGRFTISRDNAKNTVYLQMNSLKPEDTAVYYCAGDWRNSDSPSKLKPVYDYWGQGTQVTVSSGGGGSAESKYGPPCPPCPAPEAAGGPSVFLFPPKPKDQLMISRTPEVTCVVVDVSQEDPEVQFNWYVDGVEVHNAKTKPREEQFNSTYRVVSVLTVLHQDWLNGKEYKCKVSNKGLPSSIEKTISKAKGQPREPQVYTLPPSQEEMTKNQVSLTCLVKGFYPSDIAVEWESNGQPENNYKTTPPVLDSDGSFFLYSRLTVDKSRWQEGNVFSCSVLHEALHNHYTQKSLSLSLGGGGGSGGGGSGGGGSAPTSSSTKKTQLQLEHLLLDLQMILNGINNYKNPKLTAMLTAKFYMPKKATELKHLQCLERELKPLEEVLNLAQSKNFHLRPRDLISNINVIVLELKGSETTFMCEYADETATIVEFLNRWITFCQSIISTLT
notes: as for B1
In the case of B3, the binding result in experiment [1] was “no binding”. Besides, the “IC50, inhibition of soluble CD73 enzyme activity (AMP-Glo assay, recombinant human CD73)” value in experiment [2] is 0.102 nM. Further, the “EC50, SEAP reporter” value in experiment [3] was 0.00394 nM. For the same molecule, in experiment [4], the “IC50, inhibition of membrane-bound CD73 enzyme activity on MDA-MB-231 cells (adenosine assay)” value is 5.58 nM. Moreover, in experiment [5], the “EC50, CTLL-2 cell proliferation” value turned out to be 3.93 nM and the “EC50 … relative to PROLEUKIN” value came out at 20 fold.
